This note sets out measurements from patent US20130029377.

The data set has as its target Apolipoprotein A-1 Milano (ApoA-1M).

Apolipoprotein A-1 Milano (ApoA-1M), sequence (chain, as listed by the source): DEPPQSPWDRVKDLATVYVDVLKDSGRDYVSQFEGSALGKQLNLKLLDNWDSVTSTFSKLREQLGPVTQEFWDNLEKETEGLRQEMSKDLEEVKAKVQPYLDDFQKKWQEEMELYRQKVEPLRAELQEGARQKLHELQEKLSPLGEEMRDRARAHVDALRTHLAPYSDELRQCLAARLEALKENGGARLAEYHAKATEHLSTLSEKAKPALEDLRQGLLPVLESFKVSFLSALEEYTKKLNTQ

B1: outer membrane protease 3B (Protease 7 precursor, or OmpT) (protein)
chain: STETLSFTPDNINADISLGTLSGKTKERVYLAEEGGRKVSQLDWKFNNAAIIKGAINWDLMPQISIGAAGWTTLGSRGGNMVDQDWMDSSNPGTWTDESRHPDTQLNYANEFDLNIKGWLLNEPNYRLGLMAGYQESRYSFTARGGSYIYSSEEGFRDDIGSFPNGERAIGYKQRFKMPYIGLTGSYRYEDFELGGTFKYSGWVESSDNDEHYDPGKRITYRSKVKDQNYYSVAVNAGYYVTPNAKVYVEGAWNRVTNKKGNTSLYDHNNNTSDYSKNGAGIENYNFITTAGLKYTF
Protein B1 displayed an ApoA-1M K238/K239 truncated species (% total ApoA-1M), Capture pool, ompT+ strain ΔdppAΔoppAΔmalE (% total ApoA-1M) of 1.9; an ApoA-1M K238/K239 truncated species (% total ApoA-1M), DEAE pool, ompT+ strain ΔdppAΔoppAΔmalE (% total ApoA-1M) of 1.3; an ApoA-1M K238/K239 truncated species (% total ApoA-1M), DEAE post-peak pool, ompT+ strain ΔdppAΔoppAΔmalE (% total ApoA-1M) of 7; an ApoA-1M K238/K239 truncated species (% total ApoA-1M), selected DEAE post-peak fraction, ompT+ strain ΔdppAΔoppAΔmalE (% total ApoA-1M) of 14.2. The “K238/K239 truncation of ApoA-1M, ompT+ strain against ΔompT strain” value is reported as “marked (~5- to 20-fold) reduction in the amount of truncated ApoA-1M in the GB004 strain compared with the 3K0 strain”.
